Legend:
[1] = target: Full-length MMTV Gag polypeptide with a C-terminus hexa-histidine tag (Pr77^Gag-His6-tag protein) (mouse mammary tumor virus (MMTV)); assay: dynamic light scattering; Pr77^Gag in storage buffer (50 mM Tris-HCl pH 8.0, 1 M NaCl), 20°C; mean hydrodynamic radius based on number distribution
[2] = tested on: Pr77Gag (Gag precursor polyprotein) (Mouse mammary tumor virus (strain not stated; HYB-MTV?)); assay: EMSA; conditions: competition, filter binding: 30 mM Tris pH 7.5, 300 mM NaCl, 5 mM MgCl2, DTT (10 mM in protein diluent), 0.01% Triton X-100, BSA, 37 C 30 min then ice …

| Substance | stoichiometry N [1] | Kd [2] [nM] |
| --- | --- | --- |
| Full-length MMTV Gag polypeptide with a C-terminus hexa-histidine tag (Pr77^Gag-His6-tag protein) (natural protein) | 3 |  |
| WT unspliced gRNA nt 1-712 (SA35) |  | 480 |

From paper PMC8096270
